The data set can be described thus: soluble on expression in E. coli; label from the status in PepcDB or PDB records.
“MGSDKIHHHHHHMPGKAKGRSLTAAQFNLRSDRLIAGKALRNVLPRTEQASWQPAQDRRDPIAILEDSNQGRVPELIPIRYGRMLRSPFTFLRGSAAIMAYDLATTPNTGIHVQACGDCHLLNFGLFATPERNLVFDINDFDETHPAPWEWDLKRLAVSFVIAARNNQVVDQEAESIAVSCTRSYREHLRNYSRMSPLEVWYARLEMKEIIEMAPTEKIRKRREEFAERAQKRIAEHLFPKIVTLKEGKHQFVDQPPILFHSNDPTLRNRVINGLQAYRKSLPDERRVLFDRYRLEDYATKVVGIGSVGTHCSIALFFSEENHPLILQVKEARQSVLEPYTQTNCYENQGQRVVVGQRLMQSSSDIFLGWARSDLGRDFYVRQLRDMKFSLPIDGMQAERFHRYAEFCGWALARAHAKAGDAATISGYLGKADAFDEAIAKFAVAYADQTEQDYTALVQAVASGRIEAIVEEDL”: the “soluble on expression in E. coli” value was “not soluble”.

For the sequence “MGHHHHHHHHHHSSGHIDDDDKHMLEDPMATGDERFYAEHLMPTLQGLLDPESAHRLAVRFTSLGLLPRARFQDSDMLEVRVLGHKFRNPVGIAAGFDKHGEAVDGLYKMGFGFVEIGSVTPKPQEGNPRPRVFRLPEDQAVINRYGFNSHGLSVVEHRLRARQQKQAKLTEDGLPLGVNLGKNKTSVDAAEDYAEGVRVLGPLADYLVVNVSSPNTAGLRSLQGKAELRRLLTKVLQERDGLRRVHRPAVLVKIAPDLTSQDKEDIASVVKELGIDGLIVTNTTVSRPAGLQGALRSETGGLSGKPLRDLSTQTIREMYALTQGRVPIIGVGGVSSGQDALEKIRAGASLVQLYTALTFWGPPVVGKVKRELEALLKEQGFGGVTDAIGADHRR”, the “soluble on expression in E. coli” value was “soluble”.

As to “LYVGSLHFNITEDMLRGIFEPFGKIDNIVLMKDSDTGRSKGYGFITFSDSECARRALEQLNGFELAGRPMRVGHVTERLDGG”, the “soluble on expression in E. coli” value was “soluble”.

As for “MISVFDIFKIGIGPSSSHTVGPMKAGKQFTDDLIARHILTDVTRVVVDVYGSLSLTGKGHHTDIAIIMGLAGNLPDTVDIDAIPSFIQDVNTHGRLLLANGQHEVEFPVDKCMNFHADNLSLHENGMRITALAGDKVLYSQTYYSIGGGFIVDEEHFGLTNSEPVNVPYPYKTAADLQRHCQETGLSLSGLMMQNELALHSKEALEQHFARVWEVMRSGIERGITTEGVLPGKLRVPRRAAALRRMLVSQDKTTTDPMAVVDWINMFALAVNEENAAGGRVVTAPTNGACGIVPAVLAYYDKFIREVNANSLARYMLVASAIGSLYKMNASISGAEVGCQGEVGVACSMAAAGLAELLGGSPAQVCIAAEIAMEHNLGLTCDPVAGQVQVPCIERNAIASVKAVNAARMAVRRTSEPRVCLDKVIETMYETGKDMNAKYRETSRGGLAMKIVTCD”, the “soluble on expression in E. coli” value is “not soluble”.

Take “MLSLDSRKIIHHHHHHHHHDIKDGGATTGEWIGQTDHDDSDNHHQHHHHHPWCSDEVLALLRFRSTVENWFPEFTWEHTSRKLAEVGFKRSPQECKEKFEEEERRYFNSNNNNNNNTNDHQHIGNYNNKGNNYRIFSEVEEFYHHGHDNEHVSSEVGDNQNKRTNLVEGKGNVGETVQDLMAEDKLRDQDQGQVEEASMENQRNSIEVGKVGNVEDDAKSSSSSSLMMIMKEKKRKKRKKEKERFGVLKGFCEGLVRNMIAQQEEMHKKLLEDMVKKEEEKIAREEAWKKQEIERVNKEVEIRAQEQAMASDRNTNIIKFISKFTDHDLDVVQNPTSPSQDSSSLALRKTQGRRKFQTSSSLLPQTLTPHNLLTIDKSLEPFSTKTLKPKNQNPKPPKSDDKSDLGKRWPKDEVLALINIRRSISNMNDDDHKDENSLSTSSKAVPLWERISKKMLEIGYKRSAKRCKEKWENINKYFRKTKDVNKKRPLDSRTCPYFHQLTALYSQPPTGTTATTATTATSARDLDTRPEENRVGSQDPDISVPMHVDGDGAGDKSNVQFSGFDLEF”: the “soluble on expression in E. coli” value is reported as “soluble”.

With PGWEIIHENGRPLYYNAEQKTKLHYPP, the “soluble on expression in E. coli” value is reported as “soluble”.

Take “MQQLPKLDLKNKVSAQEWQLRVDLAACYRLLQMHGWDDLIHTHISVCIPGTEHILINAFGLAFEEITASNLVKIDIKGNIIDKDCPFEINPAGFTIHSAVHEVRHDDICALHVHTNETIAVASVEEGLLPLSQYSMFALASMSYHDYEGLAVNDDEKLRLQNDLGDKNFMLLRNHGALTMGKTIGDAFMHMYDLTRACQIQLQVMATGMKPIYAPQSIIDGIKAQANIVHDGETGGQKAWPAMLRRVYRNDPTFAE”: the “soluble on expression in E. coli” value is recorded as “not soluble”.

Take “MGSDKIHHHHHHMSRKSNAFSGSAAGLQHPDGRNDSGQKQQMSSPAALLQSDTLGSRLTSRGDLTSFFMELTAEIGADSYMLVAIVHDQDRNDARIVSSNWIFDAIELIGKRLIASLAQGALTVAPGIRPRPLVAARAPDADGLVSGEEARLLDVLGHAEIYSLRLNVGRQRLFALFSAATSGQIDQPALMKAQLKCCYALSHIPQLIAAAAMQDPLSDRERECLFWVSEGKTTDEVAVILGVSSNTVNSYITHAIQKFAASNRAMAIATAIRSGII”: the “soluble on expression in E. coli” value is given as “not soluble”.

“MGSDKIHHHHHHMTKAVAETLESKAAKAAPMDRLWAENDDSRVTGDPSLVVDVAGFEGPLDLLLHLARTQKVDLARISILALVEQYLAFVETARALRLELAADYLVMAAWLAFLKSKLLIPKQPGEEGESGEELAAVLQFRLKRLEAMRDAAARLVNRNRLGRDVFARGMPEMVIIEKRNAYSASLYDLLTAYAQQRQKQAVTNVTIARRGVWSLKDARDILTRLIGSLRDWTALDSFLIRYMTSPEERRTAIASSFAATLELVRERKMDLRQDEVFAPIYLRDHRAPAIKAVEVAS”: the “soluble on expression in E. coli” value is listed as “not soluble”.

As to “MGSDKIHHHHHHMPSIQELENFIIYGKVRNFTLAANQANITQSAFSFQMKKLEETLGVKLILRSNRGSSLTPEGEIFYKKISEILPELVGVIYEFQQINGEKAIELKVGVLTSLGDILMNQHVNYFQKNKNILITVYSMEKNELIRALNNGKIDIASTFLFDDETLENFEKSLFRKDKIVYYAPKIKEISGTIKRDNMLKVPLVKYPPDNFMNKMIDQYFNIERKMPTVAAKLPSPYAFIEYCKQDTAGAFITERLLNTLGFKYKQEYFNIDPPYEIKAFLLYKKENPKYSAIKIFTDYVVKLNQRDS”, the “soluble on expression in E. coli” value is listed as “not soluble”.

For “MSLEPDPDYVEPRLEGPQKQAASEIIEDVRKGGFHVSLIDGVTGSGKTEVYFEAVAETLRQGKQVLILLPEIALTAAFLERFQDRFGAKPAEWHSDLSPRMREKVWRQAVTGEIKVVAGARSALFLPFDNLGLIIVDEEHDPAYKQEDRVFYNARDMAVVRARIAEFPVVLVSATPSVESQVNGSSGRYNTIHLHTRFGDAAMPDLHLVDMRRHPPERGGFLSPVLLRGIGKTIEKGEQSLLFLNRRGYAPLTLCRVCGHRFQCPQCSSWLVEHRFRNQLQCHQCGHNEPTPDHCPECGTFDHLVACGPGVERIAEEVEKHFPEARTIVLSSDLMGVKRLRLELEAIVKGEADIVIGTQLVAKGHNFPLMTLVGIVDADLGLANGDPRAAERTFQLLSQVTGRAGRTGLKSHGLLQTYQPQHPVMQAIVSGDASAFYEREIVEREKAVLPPFGRLASIIVSADTRAEAETHARGLRAAAPQVTGIMLLGPAEAPLALIRGRHRFRLLVHGRRNSDMQSFLRTLLASGPKERGSVHVQLDIDPQSFLEGHHHHHH”, the “soluble on expression in E. coli” value is given as “soluble”.

Turning to “MGNTLGLAPMGTLPRRSPRREEPLPNPGSFDELHRLCKDVFPAQMEGVKLVVNKVLSSHFQVAHTIHMSALGLPGYHLHAAYAGDWQLSPTEVFPTVVGDMDSSGSLNAQVLLLLAERLRAKAVFQTQQAKFLTWQFDGEYRGDDYTATLTLGNPDLIGESVIMVAHFLQSLTHRLVLGGELVYHRRPGEEGAILTLAGKYSAVHWVATLNVGSGGAHASYYHRANEQVQVGVEFEANTRLQDTTFSFGYHLTLPQANMVFRGLVDSNWCVGAVLEKKMPPLPVTLALGAFLNHWRNRFHCGFSITVG”, the “soluble on expression in E. coli” value is on record as “soluble”.

As to “MGSDKIHHHHHHMSDSEKSNSRLFDLDLLRAIVTVADCGSFTTAAARLHSTQSTVSQKVRRLEEMAGHRLLERGNRDVLPTDAGDTLLGYARRLLALNDELAEALSGATVALTVRIGVPDDFAAGRTTERLAAFNRRYPQVKLEVTSGMSRDLSASYDRGELDLVLLKQRRASREALACWPEKTCWVDSARNPCIDLDPLPIVTFPPRGVYRDEMIAALEAVGRRWHISFTSSSLSGLQSAIADGMGIGLLPLRAVSAGHAVLPKNVGLPAVDVFEVALLHRPAADPMVKALARVLSRVLAEDTRSRPAFEK”, the “soluble on expression in E. coli” value is given as “not soluble”.

Turning to “MGSDKIHHHHHHMVVNALAVGCGLNVAPAQAHKFASNYHCFMVRRFDRTNAGRRLHFASAMTLTRHQDGEDASTGVSYLELADVLIRHGAQTNTDLKELWSRIVFNILVSNTDDHLRNHGYILIPGKGWRLSEAYDLNPVARSDGLKLNITENDNALDLELAREVAEYFRLGLTEADDIIANFRGIVSQWRIIAERLRLPGREQELMAEAFRGAI”, the “soluble on expression in E. coli” value is “not soluble”.

As to “KGKDDAGEKPDEPADPCGLALQVQAQGTLEQLEAELTGAGQGLALEARAGLLPQAPFPLRTASLKLTREDKSSLAATLDWQPQPGQPGRDRVVATFEAERLDLQRLAGEAIPPAMLSARGGLDAEVDDLSSLHRATLTLDVTKGSSWNRHPLAGKVAASVSALGDPPGAFATAAPAQPHALPGGLWVDQLDVDLQLGPNRVRAQGKLDERAGALKLDAQAPRLDAFWPGIPGAASVKAALDGALARHRGRIEAAYTPADARARVLGRARAQAQLEFSGGWGAGPAAEGAAAGWRGSVSRLTADSAGFALALERPVTLAYVPEALAPQWQWQVGATTLALTFPDKQRVALAHAASRGGAGRWETAGRADALVITAAMVRQILVALDPEAVARAERDSGSPVNAPVPAAQRRISLDASWDLKFAGALAGKVRVARRDGDLRIPGDPPIPLGLRTLVLEANATPTGGQASRLDARLDMATARMGAINGTASATLGGLALDPRQPIRVALDADVTDLAWLGLFVGDTLEVGGMLKANVRAQGSLDGKWNASGTVNGDKLRVVRIDDGVRLIDGMLRARLQDDRVILDSLRFPASLRVMPAEWRTREWVSTNPDAKGGYLEATGQWELSAARGQVRLQLHRFPALQRSDRYGMVSGVVTLDAALPRISINGDITADAGWVSLEILQGVPTLDDDVKVVRAGQKNAQGDGPPLQIDMNLKVDMGPRFYITGMGLDAGLLGSIQIRLQEGRLTGYGALRTRGGGIEAYGQKLRLRRGTLTFQGRLDNPLLDIEALRTGEQVEAGVRVAGTAQRPRIDLVSYPDVSDVEKLSWLVLGRGPDASGGDTALLLSVGTALLGGGQPFYKQFGLDDVSVRSGAIGSSGSLLPDRTVAAGVNRDSDADLATQFLVASKRFANGITLSVEQALAGSETVGRA”, the “soluble on expression in E. coli” value is given as “not soluble”.

As to “MADEVTIGFRFYPTEEELVSFYLRNQLEGRSDDSMHRVIPVLDVFEVEPSHLPNVAGVRCRGDAEQWFFFVPRQEREARGGRPSRTTGSGYWKATGSPGPVFSKDNKMIGAKKTMVFYTGKAPTGRKTKWKMNEYHAVDETVNASTIPKLRREFSLCRVYITTGSSRAFDRRPEGVLQTERMLTSDVAVAETSFRVESSLETSISGGEHIDVSMNTEFVDGLSEPMWDWEQLTWP”, the “soluble on expression in E. coli” value is “soluble”.

For “SASGDFCSPGEGMEILQQVCSKQLPPCNLSKEDLLQNPYFSKLLLNLSQHVDESGLSLTLAKEQAQAWKEVRLHKTTWLRSEILHRVIQELLVDYYVKIQDTNVTSEDKKFHETLEQRLLVTELMRLLGPSQEREIPPLLGLEKADLLELMPLSEDFVWMRARLQQEVEEQLKKKCFTLLCYYDPNSDADSETVKAAKVWKLAEVLVGEQQQCQDAKSQQKEQMLLLEKKSAAYSQVLLRCLTLLQRLLQEHRLKTQSELDRINAQYLEVKCGAMILKLRMEELKILSDTYTVEKVEVHRLIRDRLEGAIHLQEQDMENSRQVLNSYEVLGEEFDRLVKEYTVLKQATENKRWALQEFSKVYR”, the “soluble on expression in E. coli” value was “not soluble”.
